System: Escherichia coli TOP10
Assay: shrunken log2 fold change of peptide-encoding DNA abundance (4.5 h post-induction vs induction); higher = less antimicrobial activity (less host growth inhibition)
Conditions: time post-induction: 4.5 h; library: site-saturation at positions 5, 18, 19, 20
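Also: peptides expressed intracellularly from a pBAD plasmid library in pooled LB shake-flask culture, induced with 0.3% L-arabinose, DNA abundance read by NGS, three biological replicates, DESeq2 with apeglm shrinkage.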

Sequence	shrunken log2 fold change
RRIRRRPPRLPRPRPRPHHKPRP	-0.0355
RRIRERPPRLPRPRPRPSIVPRP	-0.443
RRIRTRPPRLPRPRPRPDFQPRP	0.00444
RRIRNRPPRLPRPRPRPEFHPRP	-0.0541
RRIRMRPPRLPRPRPRPNYEPRP	-0.122
RRIRCRPPRLPRPRPRPFQAPRP	0.0554
RRIRYRPPRLPRPRPRPEMHPRP	2.42
RRIRGRPPRLPRPRPRPQWPPRP	0.475
RRIRFRPPRLPRPRPRPFCPPRP	-0.386
RRIRVRPPRLPRPRPRPFPFPRP	-0.199
RRIRNRPPRLPRPRPRPAEMPRP	-0.00992
RRIRWRPPRLPRPRPRPRADPRP	0.667
RRIRGRPPRLPRPRPRPSASPRP	1.77
RRIRARPPRLPRPRPRPYSVPRP	-0.248
RRIRLRPPRLPRPRPRPRHCPRP	0.232
RRIRVRPPRLPRPRPRPHYMPRP	-1.03
RRIRSRPPRLPRPRPRPPMKPRP	0.194
RRIRHRPPRLPRPRPRPVPYPRP	-0.246
RRIRNRPPRLPRPRPRPKNIPRP	-0.483
RRIRHRPPRLPRPRPRPLNPPRP	-0.204
RRIRTRPPRLPRPRPRPESKPRP	0.214
RRIRNRPPRLPRPRPRPCIAPRP	-0.878
RRIRLRPPRLPRPRPRPLPPPRP	0.678
RRIRNRPPRLPRPRPRPLAAPRP	0.568
RRIRMRPPRLPRPRPRPNPEPRP	0.406

Sequence	shrunken log2 fold change
RRIRNRPPRLPRPRPRPSISPRP	-0.256
RRIRSRPPRLPRPRPRPYWIPRP	-0.267
RRIRSRPPRLPRPRPRPYPIPRP	-0.356
RRIRFRPPRLPRPRPRPDLQPRP	-0.0778
RRIRQRPPRLPRPRPRPESPPRP	0.0606
RRIRCRPPRLPRPRPRPCSLPRP	-0.477
RRIRHRPPRLPRPRPRPEQQPRP	0.096
RRIRRRPPRLPRPRPRPWALPRP	-0.0259
RRIRARPPRLPRPRPRPFMTPRP	0.178
RRIRIRPPRLPRPRPRPDYIPRP	-0.183
RRIRARPPRLPRPRPRPSIAPRP	0.186
RRIRWRPPRLPRPRPRPICPPRP	-0.0872
RRIRMRPPRLPRPRPRPDPRPRP	0.104
RRIRVRPPRLPRPRPRPYQVPRP	-0.293
RRIRPRPPRLPRPRPRPKCMPRP	-0.222
RRIRMRPPRLPRPRPRPFGHPRP	-0.0287
RRIRLRPPRLPRPRPRPGPEPRP	0.685
RRIRFRPPRLPRPRPRPQPEPRP	-0.119
RRIRKRPPRLPRPRPRPRSGPRP	0.183
RRIRDRPPRLPRPRPRPRYEPRP	0.223
RRIRARPPRLPRPRPRPPDWPRP	1.23
RRIRGRPPRLPRPRPRPATSPRP	0.914
RRIRHRPPRLPRPRPRPSYSPRP	-0.314
RRIRVRPPRLPRPRPRPFIAPRP	-0.448
RRIRYRPPRLPRPRPRPNNFPRP	-0.418

Sequence	shrunken log2 fold change
RRIRLRPPRLPRPRPRPWNHPRP	-0.347
RRIRPRPPRLPRPRPRPNAQPRP	0.0626
RRIRFRPPRLPRPRPRPAAFPRP	-0.0126
RRIRWRPPRLPRPRPRPYGTPRP	-0.232
RRIRCRPPRLPRPRPRPSCDPRP	-0.0533
RRIRSRPPRLPRPRPRPWQAPRP	0.214
RRIRIRPPRLPRPRPRPENEPRP	-0.428
RRIRWRPPRLPRPRPRPVSDPRP	0.191
RRIRWRPPRLPRPRPRPLQLPRP	0.0501
RRIRMRPPRLPRPRPRPLEGPRP	0.109
RRIRFRPPRLPRPRPRPKMYPRP	-0.815
RRIRERPPRLPRPRPRPKPIPRP	-0.128
RRIRHRPPRLPRPRPRPSNLPRP	-0.289
RRIRERPPRLPRPRPRPRCLPRP	0.0247
RRIRWRPPRLPRPRPRPKCPPRP	-0.00278
RRIRVRPPRLPRPRPRPRDSPRP	-0.188
RRIRWRPPRLPRPRPRPDEHPRP	0.0519
RRIRSRPPRLPRPRPRPGYFPRP	-0.335
RRIRVRPPRLPRPRPRPPANPRP	0.3
RRIRCRPPRLPRPRPRPDNAPRP	-0.164
RRIRRRPPRLPRPRPRPHSIPRP	0.052
RRIRLRPPRLPRPRPRPYQEPRP	-0.46
RRIRSRPPRLPRPRPRPHTDPRP	-0.216
RRIRMRPPRLPRPRPRPEADPRP	0.136
RRIRARPPRLPRPRPRPFICPRP	-0.1

Reference: the supplement of paper PMC9112550, “Optimization of the antimicrobial peptide Bac7 by deep mutational scanning” (BMC Biology, 2022)
